# Experimental data from the RNAGym collection of RNA variant scans (doi:10.1073/pnas.2313332121).
# B1: TPR t1 (parent)
# chain: GACCAAUCUGCCCUCAGAGCUCGAGAACAUCUUCGGAUGCAGAGGAGGCAGGCUUCGGUGGCGCGAUAGCGCCAACGUCCUCAACCUCCAAUGCAUCCCACCACAUGAUGAUGCCUGAAGAGCCUUGGUUUUUUG
# Variants of: B1
# Assay: polymerase ribozyme fitness, log enrichment relative to wild type (log ratio); higher = more active; in vitro selection for triplet polymerase activity
# In short: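 Genotype fitness is the logarithm of its enrichment divided by wild-type enrichment, using inverse-variance-weighted averages of replicates. That logarithm is base 2. Enrichment was measured by Illumina sequencing of input and output libraries from one triplicate in vitro selection round, with frozen incubation at −7 °C, on PCR-built, transcribed mutant libraries of each subunit of a heterodimeric triplet polymerase ribozyme, retaining genotypes with ≥10 input reads and ≥1 read per output.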
row,Variant,polymerase ribozyme fitness (log ratio)
1,GCCAAAUCUGCCCUCAGAGCUCGAGAACAUCUUCGGAUGCAGAGGAGGCAGGCUUCGGUGGCGCGAUAGCGCCAACGUCCUCAACCUCCAAUGCAUCCCACCACAUGAUGAUGCCUGAAGAGCCUUGGUUUUUUG [A2C C4A],-1.3
2,GCUCAAUCUGCCCUCAGAGCUCGAGAACAUCUUCGGAUGCAGAGGAGGCAGGCUUCGGCGGCGCGAUAGCGCCAACGUCCUCAACCUCCAAUGCAUCCCACCAAAUGAUGAUGCCUGAAGAGCCUUGGUUUUUUG [A2C C3U U59C C104A],-4.21
3,GCCCAAUCUGCCCUCUGAGCUCGAGAACAUCUUCGGAUGCAGAGGAGGCAGGCUUCGGUGGCGCGAUAGCGACAACGUCCUCAACCUCCAAUGCAUCCCACCACAUGAUGAUGCCUGAAGAGCCAUGGUUUUUUG [A2C A16U C72A U125A],-3.54
4,GCCCAAUCUGCCCUCAGAGCUCGAGAACAUCUUCGGUUGCAGAGGAGGCAGGCUUCGGUGGCGCGAUAGCGCUAACGUCCUCAACCUCCAAUACAUCCCACCACAUGAUGAUGCCUGAACAGCCUUGGUUUUUUG [A2C A37U C73U G93A G120C],-2.44
5,GCCCAAUCUGGCGUCAGAGCUCGAGAACAUCUUCGGAUGCAUAGGAGGCAGGCUUCGGUGGCGCGAUAGCGCCAGCGUCCACAACCUCCAAUGCAUCCCACCACAUGAUGAUGCCUGAAGAGCCUUGGUUUUUUG [A2C C11G C13G G42U A75G U81A],-4.31
6,GCCCAAUCUGCCCUCGGAGCUCGAGAACAUCUUCGGAUGCAGAGGAGGAAGGCUGCGGUGGCGCGAUAGCGCCAACGUCCUCAACCUCCAAUGCAUCCCACCACAUGAUGAUGCCUGAACAGCUUUGGUUUUUUG [A2C A16G C49A U55G G120C C124U],-1.14
7,GCCAAAUCUGCCCUCAGAGCUCGAGAACAUCUUCGGAUGCAGAGGAGGCAGGCUUCGGUGGCGCGAUAGCGCCAACGUCCUCAACCUCCAAUGCAUCCCACCACAUGGUGAUGCCUGAAGAGCCUUGGUUUUUUG [A2C C4A A108G],-3.25
8,GCCCAAUCUGCCCUCAGAGCUCGAGAACAUCUUCGGUUGCAGAGGAGGCAGGCUUCGGUGGCGCGAUAGCGCCAACGGCCUCAACCUCCAAUGCAUCCCACCACAUGAUGAUGCCUGAAUAGCCUUGGUUUUUUG [A2C A37U U78G G120U],-1.6
9,GCCCAGUAUGCCCUCAGAGCUCGAGAACAUCUUCGGAUGCAGAGGAGGCAGGCUUCGGUGACGCGAUAGCGCCAACGUCCUCAACCUCCAAUGCAUCCCAGCACAUGAUGAUGCCUGAAGAGCCUUGGUUCUUUG [A2C A6G C8A G61A C101G U131C],-1.87
10,GCCCGACCUGCCAUCAGAGCUCGAGAACAUCUUCGGAUGCAGAGGAGUCUGGCUUCGGUGGCGCGAUAGCGCCAACGUCCUCAACCUCCAACGCAUUCCACCACAUGAUGAUGCCUGAAGAGUCUUGGUUUUUUG [A2C A5G U7C C13A G48U A50U U92C C97U C123U],-4.24
11,GCCAAAUCUGCCCUCAGAGCUCGAGAACAUCUUCGGAUGCAGAAGAGGUAGGCUUCGGUGGCACGAUAGCGCCAACGUCCUCAACCUCCAAUGCAUCCCACCACAUGAUGAUGCCUGAAGAGCCUUGGUUUUUUG [A2C C4A G44A C49U G63A],-3.51
12,GCCCAAUCUGCCCUCAGAGCUCGAGAACAUCUUCGGAUGCAGAGGAGGCUGGCUUCGGAGGCGCGAUAGCGCCAACGUCCUCAACCUCCAAUGCAUCCCACCACAUGAUGCUGCCUGAAGCGCCUUGGUUUUAUC [A2C A50U U59A A111C A121C U133A G135C],-1.62
13,GCCCAAUCUGCCCUCAGAGCUCGAGAACAUCUUCGGAUGCAGAGGAGGCAGGCUUCGGUGGCGCGAUAGCGCCAACGUCCUCAACCUCCAAUGCAUCCCCCCACAUGAAGAUGCCUGAAGAGCCUUGGUUUUUUG [A2C A100C U109A],-6.4
14,GCCCAAUCUGCCGUCUGAGCUCGAGAACAUCUUCGGAUGCAGAGGAGGCAGGCUUCGGUGGCGCGAUAGCGCCAACGUCCUCAACCUCCAAUGCAUCCCACCACAUGAUGAUGCCUGAAGAGCCUUGGUUUUUUG [A2C C13G A16U],-4.01
15,GCCUAAUCUGCCCUCAGAGCUCGAGAACAUCUUCGUAUGCAGAGGAGGCAGGCUUCGGUGGCGCGAUAGCGCAAACGUCCUCAACCUCCAAUGCAUCCCACCAUAUGAUGAUGCCUGAAGAGCCUUGGUUUUUUG [A2C C4U G36U C73A C104U],-2.65
16,GCCAAAUCUGCCCUCAGAGCUCGAGAACAUCUUCGGAUGCAGAGGAGGCAGGCUUCGGUGGCGCGAUAGCGCCAACGUCCUCAUCCUCCAAUGCAUCCCACCACAUGAUGAUGCGUGAAGAGCCUUGGUUUUUUG [A2C C4A A84U C115G],-5.82
17,GCCCAAUCUGCCCUCAGAGCUCGAGAACAUCUUCGGUUGCAGAGGAGGCAGGCUUCGGUGGCGCGAUAGCGCCAACGUCCUCAACCUCCAAUGCAUCCCACCACAUGAUGAUGCCUGAAGAGUCUUGGUUUUUUG [A2C A37U C123U],-0.77
18,GCCCAAUCUGUCCUUAGAGCUCGAGAACAUCUUCGGAUGCAGAGGAGGCAGGCUGCGGUGGCUCGAUAGCGCCAACGUCCUCAACCUCCGAUGCAUCCCACCACAUGAUGAUGCCUGAAGGGCCUUGGUUUUUUG [A2C C11U C15U U55G G63U A90G A121G],-1.56
19,GCCCAAUCUGCCCUCAGAGCUCGAGAACAUCUUCGGAUGCAGAGGAGGCAGGCUUCGGUGGCGCGAUAGCGCCAACGUCCUCAGCCUCCAAUGCAUCCUACCACAUGAUGAUGCCUGAAGAGCCUUGGUUUUUUG [A2C A84G C99U],-6.59
20,GCCCAAUCUGCUCUCAGAGCUCGAGAACAUCUUCGGAUGCAUAGGAGGCAGGCUUCGGUGGCGCGAUAGCUCCAACGUCCUCAUCCUCCAAUGAAUCCCACCACAUGAUGAUGCCUGAAGAGCCUUGGAUUUUUG [A2C C12U G42U G71U A84U C94A U129A],-4.83
21,GCCUAAUCUGCCUUCAGAGCUCGAGAACAUCUUCGGAUGCAGAGGAGGCAGGCUUCGGUGGCGCGAUAGCGCCAACGUCCUCAACCUCCAAUGCAUCCCACCACAUGAUGAUGUCUGAAGAGCGUUGGUUUUUUG [A2C C4U C13U C114U C124G],-1.63
